Assay results: the nanobody polyreactivity screen of Harvey et al. (2022)

Assay: yeast display, Sf9 membrane polyspecificity reagent, FACS + sequencing; frameworks hold sequencing errors
Outline: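 Genes from sorted yeast were amplified by colony PCR, read by MiSeq 2 × 250 sequencing and filtered on CDR length. These cells carried a synthetic nanobody library in Saccharomyces cerevisiae BJ5465 and were sorted by FACS into low and high (top ~1%) gates on anti-HA and streptavidin fluorescence. Polyreactivity is labelled according to the gate of origin.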

Row | Sequence | polyreactivity (PSR sort gate)
1 | QVQLVESGGGLVQAGGSLRLSCAASGFTFFHYAMGWYRQAPGKERELVAAINTRGSRTYYADSVKGRFTISRDNAKNTVYLQMNSLKPEDNAVYYCAAEDYWYDFDYWGQGTQVTVSS | high polyreactivity
2 | QVQLVESGGGLVQAGGSLRLSCAASGFTFFIYVMGWYRQAPGKEREFVAAISSSGDSTYYADSVKGRFTISRDNAKNTVYLQMNSLKPEDTAVYYCAADRIRDLEFDYWGQGTQVTVSS | low polyreactivity
3 | QVQLVESGGGLVQAGGSLRLSCAASGFTFFLYAMGWYRQAPGKEMELVAAIHSRGGSTYYADSVKGRFTISRDNAKNTVSLQMNSLKPEDTAVYYCAAYIPRSSWGYDYWGQGTQVTVSS | high polyreactivity
4 | QVQLVESGGGLVQAGGSLRLSCAASGFTFFNYAMAWYRQAPGKERELVAAISSNGGRTYYADSVKGRFTISRDNAKNTVYLQMNSLKPEDTAVYYCATLYYGRVDYDYWGQGTQVTVSS | high polyreactivity
5 | QVQLVESGGGLVQAGGSLRLSCAASGFTFFRYAMGWYRQAPGKERELVAAISWSGGRTYYADSVKGRFTISRDNAKNTVYLQMNSLKPEDTAVYYCAVDYYRSGLHYDSWGQGTQVTVSS | high polyreactivity
6 | QVQLVESGGGLVQAGGSLRLSCAASGFTFFRYAMGWYRQAPGKERELVATITSGGTTNYADSVKGRFTISRDNAKNTVYLQMNSLKPEDTAVYYCAARTYPSYYVTFEYWGQGTQVTVSS | low polyreactivity
7 | QVQLVESGGGLVQAGGSLRLSCAASGFTFFSNAMGWYRQAPGKDRELVAAITSSGGSTYADSVKGRFTISRDNAKNTVYLQMNSLKPEDTAVYYCAADAQAPPCGFKEYDYWGQGTQVTVSS | low polyreactivity
8 | QVQLVESGGGLVQAGGSLRLSCAASGFTFFSYAMGWYRQAPGKERELVATITWSGGTYYADSVKGRFTISRDNAKNTVYVQMNSLKPEDTAVYYCNARRHYRRYSYRHNYWGQGTQVTVSS | high polyreactivity
9 | QVQLVESGGGLVQAGGSLRLSCAASGFTFFTNAMGWYRQAPGKERELVATITSNGSTNYADSVKGRFTISRDNAKNTVYLQMISLKPEDTAVYYCAADQDSVSMDYWGQGTQVTVSS | low polyreactivity
10 | QVQLVESGGGLVQAGGSLRLSCAASGFTFFTYAMGWYRQAPGKDRQLVAAITTGGSTNYADSVKGRFTISRDNAKINVYLEMNSLKPEDTAVYYCAAQRVSVLLFVRHDYWGQGTQVTVSS | low polyreactivity
11 | QVQLVESGGGLVQAGGSLRLSCAASGFTFFVYAMGWYRQAPGKEREGVAVITSGGTTNYADSVKGRFTISRDNAKNTVYLQMNSLKPEDTAVYYCATDNGGIPKYVPYDYWGQGTQVTVSS | high polyreactivity
12 | QVQLVESGGGLVQAGGSLRLSCAASGFTFFWYAMGWYRQAPGKERELVAGITYRGGSTYYADSVKGRFTISRDNAKNTVYLQMNSLKPEDTAVYYCNADVVTKHISAWWDRYYRRYYYWGQGTQVTVSS | low polyreactivity
13 | QVQLVESGGGLVQAGGSLRLSCAASGFTFFYNAMGWYSQAPGKESELVASITVSTSGTDYADSVKGRFTISRDNAKNTVYLQMNSLKPEDTAVYYCATDLVFVYSDLQDTAYYWGQGTQVTVSS | low polyreactivity
14 | QVQLVESGGGLVQAGGSLRLSCAASGFTFGANDMGRYIQAPGKERELVATISSSGGTTYYADSVKGRFTISRDNAKYTVYLQMNSLKPEDTAVYYCAAKGLFTGRVSRYADDHWGQGTEVTVSS | low polyreactivity
15 | QVQLVESGGGLVQAGGSLRLSCAASGFTFGAYAMGWSRQAPGKERELVASISWSGGSTYYADSVKGRFTISRDNAKNTVYLQMNSLKPEDTAVYDCNKDFVYPDDDGLFDYWGQGTQVTVSS | low polyreactivity
16 | QVQLVESGGGLVQAGGSLRLSCAASGFTFGAYARGWYRQAPGKERELVAAISSRGGSTYYADSVKGRFTISRDNAKNTVYLQKNSLKPEDTAVYYCAANSYRRTGYNYWGQGTQVSVSS | high polyreactivity
17 | QVQLVESGGGLVQAGGSLRLSCAASGFTFGGNARGWYRQAPGKERELVAAIRRGGSTNYADSVKGRFTISRDNAKNTVYLQMNSLKPEDTAVYYCARDYRSYTGSYDTSYDYWGQGTQVTVSS | high polyreactivity
18 | QVQLVESGGGLVQAGGSLRLSCAASGFTFGGYAMGWYRQAPGKERDLVAAITGSGGNTIYADSVKGRFTISRDNAKNTFYLQINSLKPDDTAVYYCNARYTSHTHADCVYLFDYWGQGTQVNVSS | low polyreactivity
19 | QVQLVESGGGLVQAGGSLRLSCAASGFTFGHYAMGWYRQAPGIERELVAAISRSGGTTSYADSVKGRFTISRDNAKNTVYLQMNSLKPEDTAVYYCNKDYIWARYGGGRDYWGQGTQVTVSS | low polyreactivity
20 | QVQLVESGGGLVQAGGSLRLSCAASGFTFGHYAMGWYRQAPGKERELVAAISIDGGRTYYADSVKGRFTISRDNAKNTVYLQMNSLKPEDTAVYYCAVPRWVYYTSDYDYWGQGTQVTVSS | high polyreactivity
21 | QVQLVESGGGLVQAGGSLRLSCAASGFTFGINAMGWYRQAPGQERELVASISSGSSTTYADSVKGRFTISRDNAKNTVYLQMNSLKPEDTAVYYCNARPFHIYWRYDYWGQGTQLTVSS | low polyreactivity
22 | QVQLVESGGGLVQAGGSLRLSCAASGFTFGIYAMGWYRQAPGKERELVAAITSGGITKYADSVKGRFTISRDNAKNTVYLQMNSLKPEDTAVYYCAATGYRQSYDSTWYRYDYWGQGTQVTVSS | low polyreactivity

Row | Sequence | polyreactivity (PSR sort gate)
23 | QVQLVESGGGLVQAGGSLRLSCAASGFTFGLYVMGWYRQAPGKERELVAVISRSGGGTYYADSVKGRFTISRDNAKNTVYLQMNSLKPEDSAVYYCAKPFSYITGWYNYWGQGTQVTVSS | high polyreactivity
24 | QVQLVESGGGLVQAGGSLRLSCAASGFTFGPYAMGWSRQAPGKEREFVAAITSSGGSTYYADSVKGRFTISRDNAKNTVYLQMNSLKPEDTAVYYCNARSRGYVGKTPRRYYYWGQGTQVTVSS | high polyreactivity
25 | QVQLVESGGGLVQAGGSLRLSCAASGFTFGPYDLGWYRQAPGKERELVAAITDSSGSTHYADSVKGRFTISRDNAKNTVYLQMNSLKPEDTAVYYCAADDSSRTTYDYWGQGTQVTVSS | low polyreactivity
26 | QVQLVESGGGLVQAGGSLRLSCAASGFTFGPYDMGWYRQAPGTERELVAAITDSSGSTHYADSVKGRFTLSRDNAKNTFYLQMNSLKPEDTAVYYCAADVSSRTTYDYWGQGTQVTVSS | low polyreactivity
27 | QVQLVESGGGLVQAGGSLRLSCAASGFTFGRNAMGWYRQAPAKERELVAAISYDGTRTYYADSVKGRFTISRDKAKNTVYLQMNSLKPEDTAVYYGNAVWVRGFYRVYDYWGQGTQVTVSS | high polyreactivity
28 | QVQLVESGGGLVQAGGSLRLSCAASGFTFGRNAMGWYRQAPGKERELVAAISSSGGTTYYADSVKGRFTISRDNAKNTVYLQMNSLKPEDTAVYSCAARRWYQSRRGGFDYWGQGTQVTVSS | high polyreactivity
29 | QVQLVESGGGLVQAGGSLRLSCAASGFTFGRYAMGGYRQAPGKERELVAAITSRGGSTYYADSVKGRFTISRDNAKNTVYLQMNSLKPEDTAVYYCAAATNTGPRGYEYWGQGTQVTVSS | high polyreactivity
30 | QVQLVESGGGLVQAGGSLRLSCAASGFTFGRYAMGWYRQAPGKERELVAAISRGGSSTYYADSVKGRFTISRDNAKNTVYLQMNSLKPEDNAVYYCNKVIIWARFDYWGQGTQVTVSS | high polyreactivity
31 | QVQLVESGGGLVQAGGSLRLSCAASGFTFGRYAMGWYRQAPGKERELVAAISTSGGRTYYADSVKGRFTISRDNAKNTVYLQMNSLKPEDTAVYYCAAEQRRFTGYDYWGQGTQVTVSS | high polyreactivity
32 | QVQLVESGGGLVQAGGSLRLSCAASGFTFGRYAMGWYRQAPGKERELVAAISWSGTRTYYADSVKGRFTISRDNAKNTVYLQLNSLKPEDTADYYCAAYPPPWAQTGFYTYDYWGQGTQVTVSS | high polyreactivity
33 | QVQLVESGGGLVQAGGSLRLSCAASGFTFGRYAMGWYRQAPGKERELVAAITWSGGSTYYADSVKGRFTISRDNAKNTVYLQMNSLKPEDTAVYYCNRLSNNREYDYWGQGTQVTVSS | high polyreactivity
34 | QVQLVESGGGLVQAGGSLRLSCAASGFTFGRYAMGWYRQAPGKVRELVAAINWSGGSTYYADSVKGRFTISRDNAKNTVYLQMNSLKPEDPAVYYCNKGVSRSSVRGDYWGQGTQVTVSS | high polyreactivity
35 | QVQLVESGGGLVQAGGSLRLSCAASGFTFGSNAMGWYRQAPGKEREFVAAISRSGSRTYYADSVKGRFTISRDNAKNTVYLQMNSLKPEDTAVYYCNARSGEISQRHMDYWGQGTQVTVSS | high polyreactivity
36 | QVQLVESGGGLVQAGGSLRLSCAASGFTFGSNAMGWYRQAPGKERELVAAISSRGGRTYYADSVKGRFTISRDNAKNTVYLQMNSLKPEDTAVYYCAKYRSYRGPYNYWGQGTQVTVSS | high polyreactivity
37 | QVQLVESGGGLVQAGGSLRLSCAASGFTFGSNAMGWYRQAPGKERELVATISRRGGRTYYADSVKGRFTISRDNAKNTVYLQMNSLKPEDTAVYYCAADRSRPGYDYWGQGTQVTVSS | high polyreactivity
38 | QVQLVESGGGLVQAGGSLRLSCAASGFTFGSNTMGWYRQAPRKERELVAAITGRGGSTYYADSVKGRFTSSRDNAKNTVYLQMTSLKPEDTAVYYCAARTYPTGASFDYWGQGTQVTVSS | high polyreactivity
39 | QVQLVESGGGLVQAGGSLRLSCAASGFTFGSNVMGWYRQAPGKERELVAAIRGRGGSTYYADSVKGRFTISRDNAKNTVYLQMNSLKPEDTAVYYCNAVYSYYYRWYYDFDYWGQGTQVTVSS | high polyreactivity
40 | QVQLVESGGGLVQAGGSLRLSCAASGFTFGSYAMGWSRQAPGKERELVAVITRSGRTNYADSVKGRFTISRDNAKNTVYLQMNSLKPEDTAVYYCNADDVDDEVSPDLTEMDYWGQGTQVTVSS | low polyreactivity
41 | QVQLVESGGGLVQAGGSLRLSCAASGFTFGSYAMGWYRQAPGKERELVAVITRSGRTNYADSVKGRFTISRDNAKNTVYLQMNSLKPEDTEVYYCNADDVDDEVSPDLTEMDYWGQGTQVTVSS | low polyreactivity
42 | QVQLVESGGGLVQAGGSLRLSCAASGFTFGTYAMGWYRQAPGKERELVARITSGGRTNYADSVKGRFTISRDNAKNTVYLQMNSLKPEDTAVFYCNAVNGYYWGSRFDYWGQGTQVTVSS | high polyreactivity
43 | QVQLVESGGGLVQAGGSLRLSCAASGFTFGTYDMGWYRQAPGKERELVAAIDWGGGSTYYADSVKGRFTISRDNAKNTFYLQMNSLKTEDTAFYYCAADGPGDYLTLEWYWFTYYYWGQGTQVTVTS | high polyreactivity
